Measurements as given in US20250263481A1 (SHIJIAZHUANG YILING PHARMACEUTICAL, published 2025).

Columns and labels:
[1] = target: T1, human CLDN18.2 expressed on cells (human); assay: flow cytometry (geometric mean, Alexa Fluor 647 anti-human IgG Fc secondary) on CLDN18.2-expressing 293T cells
T1 construct: also called huCLDN18.2; CLDN18.2-expressing 293T cells
Experimental: (§1) CLDN18.2-expressing 293T cells and CLDN18.1-expressing 293T cells at a density of 2×10⁶ cells/ml in FACS buffer ([…]) were mixed with a dilution series ([…] in FACS buffer) of the chimeric antibodies, the reference antibody, or a IgG negative control (50 μL) in a 96-well V-bottom plate and incubated for 30 min on ice. After a wash with 200 μL/well FACS buffer, cells were resuspended in 30 μL/well secondary antibody Alexa Fluor® 647 AffiniPure Goat Anti-Human IgG, […] specific (Jackson, Cat. #109-605-098) and incubated for 20 min on ice. After three washes with 200 μL/well FACS buffer, cells were resuspended with 150 μl/well FACS buffer and subjected to FACS using BD LSR II Flow Cytometer (HTS). Geometric mean was used for data analysis and plots were made using Prism GraphPad.

[2] = target: T2, human CLDN18.1 expressed on cells (human, UniProt P56856 1-261); assay: flow cytometry (geometric mean, Alexa Fluor 647 anti-human IgG Fc secondary) on CLDN18.1-expressing 293T cells
T2 construct: also called huCLDN18.1; CLDN18.1-expressing 293T cells
Experimental: as §1

[3] = target: T1, human CLDN18.2 expressed on cells; assay: cell-based or functional assay
[4] = target: T1, human CLDN18.2 expressed on cells; assay: cell-based or functional assay; remark: listed apart in the source
[5] = target: T1, human CLDN18.2 expressed on cells; assay: cell-based or functional assay; remark: listed apart in the source
[6] = target: T1, human CLDN18.2 expressed on cells; assay: cell-based or functional assay; remark: listed apart in the source
[7] = target: T1, human CLDN18.2 expressed on cells; assay: flow cytometry (percent FITC-positive cells, GAH-FITC secondary) on CHO cells expressing huCLDN18.2
Experimental: CHO cells expressing huCLDN18.2 were used to assess the binding of the antibodies. Cells were seeded at 5×10⁵ cells per 100 μl into a well of a 96-well plate for each sample. Then, 100 μl of each serially diluted antibody was added to the cells, each dilution started at 40 µg/ml and was diluted 5-fold. Therefore, the final concentration of each antibody starts at 20 µg/ml followed by a 5-fold serial dilution. After 1 hour, the cells were washed twice and 100 μl of GAH-FITC (1:200 dilution) was added to each well. After 30 minutes, the cells were washed twice and resuspended in 120 μl of FACS buffer. The cells were analyzed via flow cytometry.
Unstained cells were used as a reference to set up overall target cell gating and to establish the FITC-negative populations, allowing us to establish the FITC-positive cell gate for each cell line. Additionally, the mean fluorescence intensity (MFI) of the entire population of cells was calculated to secondarily validate the FITC-positive results. The ratio of the gated positive cell number to the total live cell number is taken as the percentage of positive cells.

[8] = target: T1, human CLDN18.2 expressed on cells; assay: KinExA 4000, antibody constant, CHO cells over-expressing huCLDN18.2 titrated
Experimental: A KinExA 4000 instrument was also used to measure binding affinity of the antibodies to surface protein of intact cells, i.e., CHO cells over-expressing huCLDN18.2. Concentration of the antibodies was held constant (CBP) and concentration of whole cells with surface protein were varied (titrant). Concentration of whole cells with surface proteins were diluted three-fold. Titrated cells were incubated with the constant binding partner (CBP). Once equilibrium was reached, the samples were centrifuged, the supernatants were recovered, and the free CBP was detected with a fluorescently labeled anti-CBP molecule.
To establish a more accurate Kd, two equilibrium curves were prepared and analyzed. One curve with low concentration of CBP at 100 pM (200 pM binding sites) and 10⁶ cells/mL with three-fold dilutions, and one curve with high concentration of CBP at 10 nM (20 nM binding sites) and 10⁶ cells/mL with three-fold dilutions. The KinExA 4000 measured the amount of unbound CBP in solution. Analysis was performed using Sapidyne Instruments n-Curve Analysis Software version 4.4.26.

[9] = target: T1, human CLDN18.2 expressed on cells; assay: cell-based or functional assay; remark: listed apart in the source

T2 sequence (P56856 whole entry): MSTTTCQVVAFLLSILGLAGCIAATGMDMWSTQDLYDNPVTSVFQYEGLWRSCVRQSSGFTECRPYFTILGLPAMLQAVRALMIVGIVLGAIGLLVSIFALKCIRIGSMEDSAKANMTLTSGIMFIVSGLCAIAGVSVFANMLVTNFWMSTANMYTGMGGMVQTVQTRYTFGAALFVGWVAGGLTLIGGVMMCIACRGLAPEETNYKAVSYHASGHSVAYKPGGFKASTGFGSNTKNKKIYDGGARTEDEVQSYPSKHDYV

B1: YL-G1-19-01 (antibody, human IgG1, kappa, V domains shown)
VH: QVQLQQSGAELVRPGTSVKVSCKASGYAFTNYLIEWVKQRPGQGLEWIGVINPGSGGTNYNEKFKGKATLTADKSSNTAYMQLSSLTSEDSAVYFCARVYYGNSFGYWGQGTLVTVSA
VL: DIVMTQSPSSLTVTAGEKVTMSCKSSQSLLNSGNQKNYLTWYQQKPGQPPKLLIYWASTRESGVPDRFTGSGSGTDFTLTISSVQAEDLAVYYCQNEYFYPFTFGSGTKLEIKR
notes: also called chimeric antibody with the variable region of one of the mouse mAbs
EC50 (read off the curve) [1]: ~1 µg/mL
binding result [2]: no binding (tested: about 30 ug/ml)

B2: YL-G1-19-04 (antibody, human IgG1, kappa)
heavy: not shown
light: DIVMTQSPSSLTVTAGEKVTLSCKSSQSLLNSGNQKNYLTWYQQRPGQPPKLLIYWASTRESGVPVRFTGSGSGADFTLTISSVQAEDLAVYFCQNAYFYPLTFGTGTKLELRRTVAAPSVFIFPPSDEQLKSGTASVVCLLNNFYPREAKVQWKVDNALQSGNSQESVTEQDSKDSTYSLSSTLTLSKADYEKHKVYACEVTHQGLSSPVTKSFNRGEC
notes: Mouse/human chimeric IgG1 kappa, first generation
ADCC on KATOIII CLDN18.2 cells, LDH: EC50 [3]: 0.14 nM
ADCC on KATOIII CLDN18.2 cells, LDH: max (% cytotoxity) [3]: 15.4%
CDC on CT26 CLDN18.2 cells, LDH: EC50 [4]: 0.19 nM
CDC on CT26 CLDN18.2 cells, LDH: max (% cytotoxity) [4]: 59.2%
CDC on KATOIII CLDN18.2 cells, LDH: EC50 [5]: 4.76 nM
CDC on KATOIII CLDN18.2 cells, LDH: max (% cytotoxity) [5]: 48.3%
EC50 (read off the curve) [1]: ~0.7 µg/mL
ADCC on NCI-N87 CLDN18.2 cells, LDH: EC50 [6]: 0.067 nM
ADCC on NCI-N87 CLDN18.2 cells, LDH: max (% cytotoxity) [6]: 12.6%
binding result [2]: no binding (tested: about 30 ug/ml)

B3: YL-G2-D (antibody, human IgG1, kappa)
heavy: QLQQSGPELEKPGASVKISCKASGYSFTGYKMNWVKQSNGESLEWIGNIDPYYGDTTYTQKFKGKATFTVDTSSSTAYMQLKSLTSEDSAVYFCARYNRGNTMDYWGQGTSVTVSSASTKGPSVFPLAPSSKSTSGGTAALGCLVKDYFPEPVTVSWNSGALTSGVHTFPAVLQSSGLYSLSSVVTVPSSSLGTQTYICNVNHKPSNTKVDKRVEPKSCDKTHTCPPCPAPELVGGPSVFLLPPKPKDTLMISRTPEVTCVVVDVSHEDPEVKFNWYVDGVEVHNAKTKPPEEQYNSTLRVVSVLTVLHQDWLNGKEYKCKVSNKALPAPIEKTISKAKGQPREPQVYTLPPSREEMTKNQVSLTCLVKGFYPSDIAVEWESNGQPENNYKTTPLVLDSDGSFFLYSKLTVDKSRWQQGNVFSCSVMHEALHNHYTQKSLSLSPGK
light: DIVMTQSPSSLTVTAGEKVTLSCKSSQSLLNSGNQKNYLTWYQQRPGQPPKLLIYWASTRESGVPVRFTGSGSGADFTLTISSVQAEDLAVYFCQNAYFYPLTFGTGTKLELRRTVAAPSVFIFPPSDEQLKSGTASVVCLLNNFYPREAKVQWKVDNALQSGNSQESVTEQDSKDSTYSLSSTLTLSKADYEKHKVYACEVTHQGLSSPVTKSFNRGEC
notes: Second generation, Fc-engineered form of YL-G1-19-04
EC50 (read off the curve) [7]: ~0.0003 µg/mL
ADCC on KATOIII CLDN18.2 cells, LDH: EC50 [3]: 0.021 nM
ADCC on KATOIII CLDN18.2 cells, LDH: max (% cytotoxity) [3]: 18.4%
Kd [8]: 0.0131 nM
CDC on CT26 CLDN18.2 cells, LDH: EC50 [4]: 0.12 nM
CDC on CT26 CLDN18.2 cells, LDH: max (% cytotoxity) [4]: 71.8%
CDC on KATOIII CLDN18.2 cells, LDH: EC50 [5]: 2.4 nM
CDC on KATOIII CLDN18.2 cells, LDH: max (% cytotoxity) [5]: 49.2%
ADCC on NCI-N87 CLDN18.2 cells, LDH: EC50 [6]: 0.0089 nM
ADCC on NCI-N87 CLDN18.2 cells, LDH: max (% cytotoxity) [6]: 18.6%

B4: YL-G1-19-02 (antibody, human IgG1, kappa)
heavy: not shown
light: DIVMTQSPSSLTVTAGEKVTMSCKSSQSLLNSGNQKNYLTWYQQRPGQPPKLLIYWASTRESGVPVRFTGSGSGTDFTLTISSVQAEDLAVYYCQNAYIYPLTFGTGTKLELKRTVAAPSVFIFPPSDEQLKSGTASVVCLLNNFYPREAKVQWKVDNALQSGNSQESVTEQDSKDSTYSLSSTLTLSKADYEKHKVYACEVTHQGLSSPVTKSFNRGEC
notes: Mouse/human chimeric IgG1 kappa, first generation; also called YL-G1-02
ADCC, FACS: EC50 [9]: ~0.224 nM
ADCC, LDH: EC50 [9]: 0.3 nM
ADCC on KATOIII CLDN18.2 cells, LDH: EC50 [3]: 0.16 nM
ADCC on KATOIII CLDN18.2 cells, LDH: max (% cytotoxity) [3]: 19.9%
CDC on CT26 CLDN18.2 cells, LDH: EC50 [4]: 0.26 nM
CDC on CT26 CLDN18.2 cells, LDH: max (% cytotoxity) [4]: 73.4%
CDC on KATOIII CLDN18.2 cells, LDH: EC50 [5]: 1.95 nM
CDC on KATOIII CLDN18.2 cells, LDH: max (% cytotoxity) [5]: 35.4%
EC50 (read off the curve) [1]: ~0.7 µg/mL
ADCC on NCI-N87 CLDN18.2 cells, LDH: EC50 [6]: 0.072 nM
ADCC on NCI-N87 CLDN18.2 cells, LDH: max (% cytotoxity) [6]: 16.8%
binding result [2]: no binding (tested: about 30 ug/ml)

B5: YL-G1-19-03 (antibody, human IgG1, kappa)
heavy: not shown
light: DIVMTQSPSSLTVTAGEKVTMSCKSSQSLLNSGNQKNYLTWYQQKPGQPPKLLIYWASTRESGVPDRFTGSGSGTDFTLTISSVQAEDLAIYYCQNNYFYPLTFGAGTRLELKRTVAAPSVFIFPPSDEQLKSGTASVVCLLNNFYPREAKVQWKVDNALQSGNSQESVTEQDSKDSTYSLSSTLTLSKADYEKHKVYACEVTHQGLSSPVTKSFNRGEC
notes: as for B2
ADCC on KATOIII CLDN18.2 cells, LDH: EC50 [3]: 0.21 nM
ADCC on KATOIII CLDN18.2 cells, LDH: max (% cytotoxity) [3]: 16.7%
CDC on CT26 CLDN18.2 cells, LDH: EC50 [4]: 0.24 nM
CDC on CT26 CLDN18.2 cells, LDH: max (% cytotoxity) [4]: 62.2%
CDC on KATOIII CLDN18.2 cells, LDH: EC50 [5]: ~4.98 nM
CDC on KATOIII CLDN18.2 cells, LDH: max (% cytotoxity) [5]: 67%
EC50 (read off the curve) [1]: ~0.6 µg/mL
ADCC on NCI-N87 CLDN18.2 cells, LDH: EC50 [6]: 0.13 nM
ADCC on NCI-N87 CLDN18.2 cells, LDH: max (% cytotoxity) [6]: 15.2%
binding result [2]: no binding (tested: about 30 ug/ml)

B6: YL-G2-C (antibody, human IgG1, kappa)
heavy: QIQLVQSGPELRKPGETVKISCKASGFPFTTDGMSWVKQAPGKGLKWMGWINTYSGVPTYADDFKGRVAFSLETSASTAYLQIKNLKNEDTATYFCARFRRGNALDNWGQGTSVTVSSASTKGPSVFPLAPSSKSTSGGTAALGCLVKDYFPEPVTVSWNSGALTSGVHTFPAVLQSSGLYSLSSVVTVPSSSLGTQTYICNVNHKPSNTKVDKRVEPKSCDKTHTCPPCPAPELVGGPSVFLLPPKPKDTLMISRTPEVTCVVVDVSHEDPEVKFNWYVDGVEVHNAKTKPPEEQYNSTLRVVSVLTVLHQDWLNGKEYKCKVSNKALPAPIEKTISKAKGQPREPQVYTLPPSREEMTKNQVSLTCLVKGFYPSDIAVEWESNGQPENNYKTTPLVLDSDGSFFLYSKLTVDKSRWQQGNVFSCSVMHEALHNHYTQKSLSLSPGK
light: DIVMTQSPSSLTVTAGEKVTMSCKSSQSLLNSGNQKNYLTWYQQKPGQPPKLLIYWASTRESGVPDRFTGSGSGTDFTLTISSVQAEDLAIYYCQNNYFYPLTFGAGTRLELKRTVAAPSVFIFPPSDEQLKSGTASVVCLLNNFYPREAKVQWKVDNALQSGNSQESVTEQDSKDSTYSLSSTLTLSKADYEKHKVYACEVTHQGLSSPVTKSFNRGEC
notes: Second generation, Fc-engineered
EC50 (read off the curve) [7]: ~0.0006 µg/mL
ADCC on KATOIII CLDN18.2 cells, LDH: EC50 [3]: 0.019 nM
ADCC on KATOIII CLDN18.2 cells, LDH: max (% cytotoxity) [3]: 17.6%
Kd [8]: 0.0386 nM
CDC on CT26 CLDN18.2 cells, LDH: EC50 [4]: 0.1 nM
CDC on CT26 CLDN18.2 cells, LDH: max (% cytotoxity) [4]: 65.2%
CDC on KATOIII CLDN18.2 cells, LDH: EC50 [5]: ~6.04 nM
CDC on KATOIII CLDN18.2 cells, LDH: max (% cytotoxity) [5]: 74.6%
ADCC on NCI-N87 CLDN18.2 cells, LDH: EC50 [6]: 0.0078 nM
ADCC on NCI-N87 CLDN18.2 cells, LDH: max (% cytotoxity) [6]: 14.9%
